Experimental data: publication PMC11532494 (Nature Communications, 2024)
Several values for one entry are separate records, joined by “and”; a condition that tells them apart may be missing. Identical values can stand only once. No end group written: not given here. *: point of attachment. AMC = Cc1cc(=O)oc2cc(N*)ccc12

What follows are substances tested against LpApaH (3) (Legionella pneumophila, UniProt A0A2S6EWV0).
Format: biochemical
“QPKKdec (QPKK-{AMC}; not fully specified (residue 4); printed as QPKKdec; also: decanoyl-lysine (which Lys not given here); UniProt P04637 317-320, looked up, fragment)” was tested, and the “[AMC]” value was 154.30 nM and 187.50 nM. In the case of “QPKKmyr (QPKK-{AMC}; not fully specified (residue 4); printed as QPKKmyr; also: myristoyl-lysine (which Lys not given here); UniProt P04637 317-320, looked up, fragment)”, the “[AMC]” value is reported as 400.39 nM and 496.09 nM. “QPKKoct (QPKK-{AMC}; not fully specified (residue 4); printed as QPKKoct; also: octanoyl-lysine (which Lys not given here); UniProt P04637 317-320, looked up, fragment)” was tested, and the “[AMC]” value was 53.71 nM and 69.34 nM.
